Test results taken from the Immune Epitope Database (IEDB).
pKd: −log10 of the molar value.

What was measured:
Experiment in all cases: IEDB peptide-MHC binding, purified MHC/direct/fluorescence; filed as Kd, often an IC50 or EC50 that approximates it; ≥ and ≤ were set here for values at or beyond the usual limits of such assays
Conditions in all cases: source organism: Cryptosporidium parvum Iowa II
HLA-B*27:03 = molecular target: HLA-B*27:03
HLA-A*03:01 = molecular target: HLA-A*03:01
HLA-A*24:03 = molecular target: HLA-A*24:03
HLA-B*18:01 = molecular target: HLA-B*18:01
HLA-A*02:03 = molecular target: HLA-A*02:03
HLA-A*29:02 = molecular target: HLA-A*29:02
HLA-B*57:01 = molecular target: HLA-B*57:01

Measured: pKd

TVFRNQNRV
≤ 4.70: all assays above
